{"source": "paper PMC10628517", "about": "“CXCL17 binds efficaciously to glycosaminoglycans with the potential to modulate chemokine signaling” (Frontiers in Immunology, 2023)", "proteins": {"B1": {"name": "recombinant human CXCL17 (24–119) (natural protein, UniProt Q6UXB2 24-119, looked up)", "chain": "LNPGVARGHRDRGQASRRWLQEGGQECECKDWFLRAPRRKFMTVSGLPKKQCPCDHFKGNVKKTRHQRHHRKPNKHSRACQQFLKQCQLRSFALPL", "notes": "human CXCL17, residues 24-119 (Leu24–Leu119), the commercially available form without the predicted signal peptide; UniProt Q6UXB2; The text calls the protein on the blots commercially available; also called Leu24–Leu119 form of CXCL17; source: bought: R&D Systems; produced in E. coli"}}, "target": "the molecule itself", "assay": "reducing SDS-PAGE and Western blot; serial dilutions of recombinant CXCL17 (24–119), 1.25–10 μM, resolved by reducing SDS-PAGE and probed with anti-CXCL17; bands of 14 kDa and 28 kDa read as monomer and dimer; the 28-kDa species seen at 5 μM and above", "data": [{"protein": "B1", "values": [{"measurement": "ratio of monomer:dimer", "result": "~3 monomer:dimer"}]}]}
